± gives the half width of the 95% confidence interval.
Key:
[1] = folding stability dG unfold from trypsin proteolysis; higher = more stable
Outline: (§1)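 Sequencing followed digestion of designed mini-proteins with trypsin and chymotrypsin, each at 11 concentrations in threefold dilutions together with a no-protease condition. The mini-proteins were under 80 residues, had no cysteine, sat in a PA-tagged cDNA display construct, and were kept only if AlphaFold2 dimer inter-PAE was above 15. From the counts, Bayesian fitting gave K50, and unfolding free energy was derived against a sequence-predicted unfolded-state K50 and a shared folded-state K50, per protease or combined.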

[2] = folding stability dG unfold from chymotrypsin proteolysis; higher = more stable
Outline: as §1

[3] = folding stability dG unfold (combined trypsin and chymotrypsin); higher = more stable
Outline: as §1

Row | Sequence | folding stability dG unfold [1] | folding stability dG unfold [2] | folding stability dG unfold [3]
1 | SAGGSAGGSAGGPPLKVTEVETHKHPNGHRYVTMTLRPPNGGPVTIMFDPNNGKIQIMISAGGSAGGSAGGS [r10_1218_TrROS] | 2.19 ± 0.13 kcal/mol | 3.35 ± 0.19 kcal/mol | 2.94 ± 0.24 kcal/mol
2 | SAGGSAGGSAGGPPVLAESTFSFPDGVTVRLAFLPDGKAIAELTPPDGSKIEVEFDVDASAGGSAGGSAGGS [r10_1184_TrMRF] | -0.214 ± 0.11 kcal/mol | 0.203 ± 0.14 kcal/mol | 0.189 ± 0.23 kcal/mol
3 | SAGGSAGGSAGGPPYEVNIYIKFRPPDGKPPTFPIDVNVNDPEDAKDELEDNFPNMEIVSAGGSAGGSAGGS [r10_1248_TrROS] | 0.592 ± 0.051 kcal/mol | 0.996 ± 0.15 kcal/mol | 0.919 ± 0.23 kcal/mol
4 | SAGGSAGGSAGGPSPSTPVTVTVTFPETGETVTLEVTDLEELRERFPDRPVEITVSPGGSAGGSAGGSAGGS [r10_1004_JUSTAS] | 2.5 ± 0.064 kcal/mol | 2.11 ± 0.041 kcal/mol | 2.42 ± 0.06 kcal/mol
5 | SAGGSAGGSAGGPTIVLKVSPEELKALEKAGVEIEKIEKNEDGELYITLTPEALKKAGFESAGGSAGGSAGG [r7_587_TrROS_Hall] | 2.85 ± 0.13 kcal/mol | 2.91 ± 0.057 kcal/mol | 2.97 ± 0.11 kcal/mol
6 | SAGGSAGGSAGGPVRLLVLEVPVENVEEVVRRLEALGSVRPVRVERLPGDRYRVLVVSPLSAGGSAGGSAGG [r7_589_TrMRF] | 1.3 ± 0.046 kcal/mol | 1.54 ± 0.05 kcal/mol | 1.46 ± 0.056 kcal/mol
7 | SAGGSAGGSAGGPWITIPLPPGEEYKIENKGNGKEQEINPNDGSIVIPNIPPDNAKVERESAGGSAGGSAGG [r7_200_TrROS] | 0.179 ± 0.041 kcal/mol | -0.177 ± 0.24 kcal/mol | 0.232 ± 0.14 kcal/mol
8 | SAGGSAGGSAGGPWYVRIEYTPPNGNKETFIIPSPEEIDEWAEPFGVPVKIEPIPPGDPISAGGSAGGSAGG [r7_456_TrROS] | 0.801 ± 0.02 kcal/mol | 0.604 ± 0.1 kcal/mol | 0.736 ± 0.091 kcal/mol
9 | SAGGSAGGSAGGPYEKAVEAAKALGSEDKPITIKLPNGTTVTLKPSELPSLPYEDPIVLLSAGGSAGGSAGG [r7_863_JUSTAS] | 0.367 ± 0.093 kcal/mol | 0.259 ± 0.18 kcal/mol | 0.353 ± 0.17 kcal/mol
10 | SAGGSAGGSAGGQLKLKLKVKVTTRVRDPATGKTYTVTEEVEVTVELEFPPPPLPPGFKSAGGSAGGSAGGS [r10_1026_TrROS_Hall] | 2.7 ± 0.22 kcal/mol | 4.2 ± 0.17 kcal/mol | 3.64 ± 0.21 kcal/mol
11 | SAGGSAGGSAGGSAELLEVLEVTKTGSGYTVKVLERSPELGPSVRTESFPADDTSVLLLSAGGSAGGSAGGS [r4_253_JUSTAS] | -0.00295 ± 0.088 kcal/mol | -0.384 ± 0.22 kcal/mol | -0.0527 ± 0.1 kcal/mol
12 | SAGGSAGGSAGGSAMTLLSEEELPDGSRRVLMRFPDGTRMELTVHPDGSVEERVTPPAASAGGSAGGSAGGS [r4_483_JUSTAS] | 2.28 ± 0.065 kcal/mol | 2.904 ± 0.021 kcal/mol | 2.72 ± 0.086 kcal/mol
13 | SAGGSAGGSAGGSDDPDGKPKPQIPPIKVEPIPIKDPNGWSIEIYYFPWNGMLIISFYNSAGGSAGGSAGGS [r4_305_TrROS] | 3.3 ± 0.22 kcal/mol | 4.34 ± 0.12 kcal/mol | 4.26 ± 0.2 kcal/mol
14 | SAGGSAGGSAGGSDGALIFIIHIKMEMELEPNPDGPPKWDMDWDIEPTWIQIDDPEDFKSAGGSAGGSAGGS [r4_450_TrROS] | 1.59 ± 0.13 kcal/mol | 2.48 ± 0.15 kcal/mol | 2.19 ± 0.21 kcal/mol
15 | SAGGSAGGSAGGSDKDPDKMKPKPVFEMEIVTYEWEKDGDGDWEPLSVEVQRIRVYAMDSAGGSAGGSAGGS [r4_288_TrROS] | 3.13 ± 0.14 kcal/mol | 4.51 ± 0.23 kcal/mol | 4.19 ± 0.19 kcal/mol
16 | SAGGSAGGSAGGSGDPNNPVTLLVLDVPSPEPAGTVYYFPDGYVAVNFPSINRTLVFYGSAGGSAGGSAGGS [r4_78_TrMRF] | 0.766 ± 0.036 kcal/mol | 1.42 ± 0.15 kcal/mol | 1.2 ± 0.17 kcal/mol
17 | SAGGSAGGSAGGSGLSFEIVEEREELLPDGRPRRRIFATLPGGRRLVIDDDGRITIDPDSAGGSAGGSAGGS [r4_111_TrMRF] | 0.45 ± 0.33 kcal/mol | 0.968 ± 0.15 kcal/mol | 0.897 ± 0.25 kcal/mol
18 | SAGGSAGGSAGGSGMVNLPEPIKVTKEEPLPDGSVRYTIEYPDSTITVFKYPDGIKIESSAGGSAGGSAGGS [r4_280_JUSTAS] | 0.35 ± 0.049 kcal/mol | 0.29 ± 0.24 kcal/mol | 0.393 ± 0.1 kcal/mol

Row | Sequence | folding stability dG unfold [1] | folding stability dG unfold [2] | folding stability dG unfold [3]
19 | SAGGSAGGSAGGSGPPKLRLLRRVEVVYDGLVLPPNFPLPPSAPPNLKVFVSLVTLPEGSAGGSAGGSAGGS [r4_436_TrMRF] | 3.11 ± 0.091 kcal/mol | 1.83 ± 0.25 kcal/mol | 2.35 ± 0.43 kcal/mol
20 | SAGGSAGGSAGGSGSKEPKYYYRVVVEDDGNPVVRTYAPDEPLPAPANLKVFPFLADEESAGGSAGGSAGGS [r4_107_TrMRF] | -0.421 ± 0.81 kcal/mol | 0.857 ± 0.19 kcal/mol | 0.452 ± 0.25 kcal/mol
21 | SAGGSAGGSAGGSGSSVLVKTTTTLSVAPGATITLPDGTVYTVPAGVPVTVTTWVLVETSAGGSAGGSAGGS [r4_232_JUSTAS] | 2.31 ± 0.14 kcal/mol | 4.05 ± 0.092 kcal/mol | 3.38 ± 0.13 kcal/mol
22 | SAGGSAGGSAGGSIEIEITVELEDGYYLRISARFELNEDGSLKLEIKIELIKIEPGQELSAGGSAGGSAGGS [r10_241_TrROS_Hall] | 3.52 ± 0.48 kcal/mol | 2.27 ± 0.1 kcal/mol | 3.18 ± 0.32 kcal/mol
23 | SAGGSAGGSAGGSIEIIVRTPEMAKQMAKRIQKILADQGNPPPLKIEIHVIPPDDLPPWSAGGSAGGSAGGS [r4_472_TrROS] | -0.0989 ± 0.26 kcal/mol | 0.571 ± 0.092 kcal/mol | 0.388 ± 0.15 kcal/mol
24 | SAGGSAGGSAGGSILLITTHPKDAEKAAKEIEKILAELDIPPDAKIEVYVVPKEYLPDESAGGSAGGSAGGS [r4_472_TrMRF] | 0.323 ± 0.035 kcal/mol | 0.176 ± 0.17 kcal/mol | 0.329 ± 0.14 kcal/mol
25 | SAGGSAGGSAGGSIPPSDVTTEVDPNTPLTTVTYPSGVVVTETFPPDGTSTTTVDTAAGSAGGSAGGSAGGS [r10_170_JUSTAS] | 2.01 ± 0.038 kcal/mol | 1.23 ± 0.028 kcal/mol | 1.56 ± 0.039 kcal/mol
26 | SAGGSAGGSAGGSITITTEPLPSGGRRVTVTLPGSSVVLELEFSPDETEEEVRAAVEAASAGGSAGGSAGGS [r10_825_JUSTAS] | 1.47 ± 0.035 kcal/mol | 2.12 ± 0.06 kcal/mol | 1.93 ± 0.09 kcal/mol
27 | SAGGSAGGSAGGSITITWNPESGTVKIKPPNNKKEIEIPAENMTPSQIIDQAKDNGVEVSAGGSAGGSAGGS [r4_49_TrROS] | -0.0527 ± 0.12 kcal/mol | 1.39 ± 0.1 kcal/mol | 0.935 ± 0.17 kcal/mol
28 | SAGGSAGGSAGGSIVIEVDTLEEAKKLAEKLNLKVTEVKEVDGKLYVKIEIKSPEELKKSAGGSAGGSAGGS [r10_218_TrROS_Hall] | 0.204 ± 0.11 kcal/mol | 2.002 ± 0.018 kcal/mol | 1.53 ± 0.12 kcal/mol
29 | SAGGSAGGSAGGSKDERTLTLRLRVTTPIYGTDADGNPLEPIEVTKEYELTVTVPADLLSAGGSAGGSAGGS [r4_425_TrMRF] | 1.18 ± 0.082 kcal/mol | 2.69 ± 0.099 kcal/mol | 2.1 ± 0.16 kcal/mol
30 | SAGGSAGGSAGGSKFLVKTSVEVFKNPVGGNRYGAKITTLAVNPDTNEVTLSESYLPLDLSAGGSAGGSAGG [r7_216_TrMRF] | 0.114 ± 0.11 kcal/mol | 0.842 ± 0.13 kcal/mol | 0.62 ± 0.12 kcal/mol
31 | SAGGSAGGSAGGSKIEIEEENGELKITIEVDGKKYEITIPKDMTLEEALKKALEKLPGLSAGGSAGGSAGGS [r4_191_TrROS_Hall] | 3.45 ± 0.69 kcal/mol | 2.5 ± 0.087 kcal/mol | 3.09 ± 0.18 kcal/mol
32 | SAGGSAGGSAGGSKIENIKDIERNPNPDGHYMITIPNGWQIVVRMDKNGKMEIEIVPLKSAGGSAGGSAGGS [r4_177_TrROS] | 1.87 ± 0.076 kcal/mol | 1.88 ± 0.039 kcal/mol | 1.82 ± 0.15 kcal/mol
33 | SAGGSAGGSAGGSKKKKKKKKKKVVKLTVLIEKDGELYLVEIEFDKDGKIVSISVEKLPSAGGSAGGSAGGS [r4_192_TrROS_Hall] | 2.12 ± 0.16 kcal/mol | 4 ± 0.27 kcal/mol | 3.27 ± 0.32 kcal/mol
34 | SAGGSAGGSAGGSKKKPPKKITLVVWNEETGELTKVEFDAETKEVKVEKVPIKPGDILLSAGGSAGGSAGGS [r4_409_TrROS_Hall] | 1.18 ± 0.034 kcal/mol | 0.946 ± 0.062 kcal/mol | 0.988 ± 0.21 kcal/mol
35 | SAGGSAGGSAGGSKPEVIKLKVKKIKVKKKKYDKNGKLVEEEEKEITVETTVFVPKEDLSAGGSAGGSAGGS [r4_425_TrROS_Hall] | -0.381 ± 0.18 kcal/mol | 0.336 ± 0.14 kcal/mol | 0.182 ± 0.17 kcal/mol
36 | SAGGSAGGSAGGSKPMYLFTVETENGKKLVIEAKSLEEALKALEKAGYKIKKVEVVKLPSAGGSAGGSAGGS [r4_213_TrROS_Hall] | 3.36 ± 0.1 kcal/mol | 3.996 ± 0.036 kcal/mol | 3.81 ± 0.071 kcal/mol

From the supplement of paper PMC12764529
